The results in this text go back to PMC6053526, “Arabidopsis WRKY50 and TGA Transcription Factors Synergistically Activate Expression of PR1”.

Data set [1] addresses T1, GST-AtWRKY50-C (Arabidopsis thaliana, UniProt Q8VWQ5 86-173). Briefly: EMSA; 5x buffer (3 uL in 14 uL): 20% glycerol, 5 mM MgCl2, 2.5 mM EDTA, 2.5 mM DTT, 250 mM NaCl, 50 mM Tris-HCl pH 7.5, 0.25 mg/ml poly(dI-dC); 0.5 ug protein; 10 min RT, then 60 min on ice with probe; gel at 4 C. The following applies: protein: recombinant, tags: GST (N-term), label: 32P. Background: In EMSA bound probe runs differently from free probe, usually more slowly.

The target of data set [2] is T2, TGA2-His (Arabidopsis thaliana, UniProt P43273 1-330).
T2 sequence: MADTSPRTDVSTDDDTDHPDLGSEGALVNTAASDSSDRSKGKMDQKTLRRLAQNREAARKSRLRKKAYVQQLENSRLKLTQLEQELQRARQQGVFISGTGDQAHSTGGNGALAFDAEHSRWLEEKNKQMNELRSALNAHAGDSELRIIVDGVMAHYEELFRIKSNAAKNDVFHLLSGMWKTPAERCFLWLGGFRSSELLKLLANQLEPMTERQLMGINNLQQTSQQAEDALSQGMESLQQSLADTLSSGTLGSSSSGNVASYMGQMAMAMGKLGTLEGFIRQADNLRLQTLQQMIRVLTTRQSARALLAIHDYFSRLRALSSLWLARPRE
The description is as above. The following applies: protein: recombinant; tags: His; chain copies: 2; label: 32P; blunt.

In data set [3] the target is T1, GST-AtWRKY50-C. Briefly: EMSA; enhanced vs fragment A; 5x buffer (3 uL in 14 uL): 20% glycerol, 5 mM MgCl2, 2.5 mM EDTA, 2.5 mM DTT, 250 mM NaCl, 50 mM Tris-HCl pH 7.5, 0.25 mg/ml poly(dI-dC); 0.5 ug protein; 10 min RT, then 60 min on ice with probe; gel at 4 C. The note with it: protein: recombinant; tags: GST (N-term); label: 32P; 5' overhang 3 nt (GGG) both ends.

For data set [4], the target named is T1, GST-AtWRKY50-C. Briefly: EMSA; as wild type D; 5x buffer (3 uL in 14 uL): 20% glycerol, 5 mM MgCl2, 2.5 mM EDTA, 2.5 mM DTT, 250 mM NaCl, 50 mM Tris-HCl pH 7.5, 0.25 mg/ml poly(dI-dC); 0.5 ug protein; 10 min RT, then 60 min on ice with probe; gel at 4 C. The following applies: protein: recombinant; tags: GST (N-term); label: 32P; 5' overhang 3 nt (GGG) both ends.

The target of data set [5] is T2, TGA2-His. Briefly: EMSA; shift increased by full-length AtWRKY50; 5x buffer (3 uL in 14 uL): 20% glycerol, 5 mM MgCl2, 2.5 mM EDTA, 2.5 mM DTT, 250 mM NaCl, 50 mM Tris-HCl pH 7.5, 0.25 mg/ml poly(dI-dC); 0.5 ug protein; 10 min RT, then 60 min on ice with probe; gel at 4 C. The note with it: protein: recombinant; tags: His; chain copies: 2; label: 32P; blunt.

T1 sequence (Q8VWQ5 86-173): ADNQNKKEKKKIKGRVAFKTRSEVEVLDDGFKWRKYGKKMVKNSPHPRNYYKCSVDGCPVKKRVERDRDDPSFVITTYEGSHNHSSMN

B1: fragment A (dsDNA)
DNA 1: GGTGATCTATTGACTGTTTCTCTACGTCACTA
DNA 2: TAGTGACGTAGAGAAACAGTCAATAGATCACC
As for B1, the binding result in data set [1] (blunt) was “binds”; in data set [2], “no binding”.

B2: Am1 (dsDNA)
DNA 1: GGGGGTGATCTATTGACTTTTCTCTACGTCACTAT
DNA 2: GGGATAGTGACGTAGAGAAAAGTCAATAGATCACC
Regarding B2, the binding result in data set [3] was “binds”.

B3: Dm2 (dsDNA)
DNA 1: GGGGATGTGGCGGCATATATTCCCCAGGACTTTTC
DNA 2: GGGGAAAAGTCCTGGGGAATATATGCCGCCACATC
Turning to B3, the binding result in data set [4] was “binds”.

B4: Am2 (dsDNA)
DNA 1: GGGGGTGATCTATTGACTGCCTCTCTACGTCACTA
DNA 2: GGGTAGTGACGTAGAGAGGCAGTCAATAGATCACC
For the molecule B4, the binding result in data set [1] (5' overhang 3 nt (GGG) both ends) is “no binding”.

B5: fragment B (dsDNA)
DNA 1: TTTCTCTACGTCACTATTTTACTTACGTCATA
DNA 2: TATGACGTAAGTAAAATAGTGACGTAGAGAAA
With B5, in data set [5], the binding result was “binds”.

B6: fragment C (dsDNA)
DNA 1: TTTTACTTACGTCATAGATGTGGCGGCATATA
DNA 2: TATATGCCGCCACATCTATGACGTAAGTAAAA
Regarding B6, the binding result in data set [5] is on record as “binds”.

B7: fragment D (dsDNA)
DNA 1: GATGTGGCGGCATATATTCTTCAGGACTTTTC
DNA 2: GAAAAGTCCTGAAGAATATATGCCGCCACATC
For B7, the binding result in data set [1] (blunt) is “binds”.
